Experimental data: article PMC6382882

Key:
[1] = biological target: mKRb, recombinant fragment spanning the ketoreductase domain from module 7 of MLSB (Mycobacterium ulcerans); test: ITC; ACP species (1 mM) in the syringe injected into mKRb (50 uM) with 5 mM NADP+ in the cell; 25 mM HEPES, 50 mM NaCl, 0.01% NaN3, pH 7.5, 30 °C; single binding site model; mean of three technical replicates
[2] = biological target: mKRb, recombinant fragment spanning the ketoreductase domain from module 7 of MLSB (Mycobacterium ulcerans); test: ITC; ACP species (1 mM) in the syringe injected into mKRb (50 uM) with 5 mM NADPH in the cell; 25 mM HEPES, 50 mM NaCl, 0.01% NaN3, pH 7.5, 30 °C; single binding site model; mean of three technical replicates

Substance	Kd [1]	Kd [2]	stoichiometry N [2]
holo mACPb, short B1-type ACP domain from module 7 of MLSB with Ppant (domain or fragment)	610 nM	750 nM	–
apo mACPb, short B1-type ACP domain from module 7 of MLSB (domain or fragment)	2600 nM	2200 nM	1
apo mH0ACPb, N-terminally extended B1-type ACP domain from module 7 of MLSB (domain or fragment)	1380 nM	1430 nM	–
apo mH0ACPa, N-terminally extended A1-type ACP domain from module 5 of MLSA1 (from UniProt Q6MZA4 11087-11185) (domain or fragment)	–	2200 nM	–
holo mH0ACPb, N-terminally extended B1-type ACP domain from module 7 of MLSB with Ppant (domain or fragment)	710 nM	690 nM	–
holo mH0ACPa, N-terminally extended A1-type ACP domain from module 5 of MLSA1 with Ppant (from UniProt Q6MZA4 11087-11185) (domain or fragment)	–	630 nM	–
